According to US20200223889A1 (Novo Nordisk, published 2020):
Positions of bridges follow the written chain, without caps; N, C: chain ends. Non-standard residues stand in square brackets, D forms with d. Lys(CH2CO2H)2 = N[C@@H](CCCCN(CC(=O)O)CC(=O)O)C(=O)O; Phe(3,4-(OMe)2) = COc1ccc(C[C@H](N)C(=O)O)cc1OC; 2Nal = N[C@@H](Cc1ccc2ccccc2c1)C(=O)O; Ser(ΨH,HPro) = O=C(O)[C@@H]1COCN1; Hyp = O=C(O)[C@@H]1C[C@@H](O)CN1; Cit = NC(=O)NCCC[C@H](N)C(=O)O; Pen = CC(C)(S)[C@H](N)C(=O)O; Pip = O=C(O)[C@@H]1CCCCN1; Thz = O=C(O)[C@@H]1CSCN1; Aze = O=C(O)[C@@H]1CCN1; Sar = CNCC(=O)O

B1: Chem. 70 (peptide)
peptide: cyclo(C[Hyp]H[dF]HWCAKKKW)
modifications: disulfide 1-7
SMILES: C[C@@H]1NC(=O)[C@@H]2CSSC[C@H](NC(=O)[C@H](Cc3c[nH]c4ccccc34)NC(=O)[C@H](CCCCN)NC(=O)[C@H](CCCCN)NC(=O)[C@H](CCCCN)NC1=O)C(=O)N1C[C@H](O)C[C@H]1C(=O)N[C@@H](Cc1c[nH]cn1)C(=O)N[C@H](Cc1ccccc1)C(=O)N[C@@H](Cc1c[nH]cn1)C(=O)N[C@@H](Cc1c[nH]c3ccccc13)C(=O)N2
notes: also called c[c[Cys-Hyp-His-D-Phe-His-Trp-Cys]-Ala-Lys-Lys-Lys-Trp]
B2: Chem. 72 (peptide)
peptide: cyclo(CPH[dF][Cit]WCAKKKR)
modifications: disulfide 1-7
SMILES: C[C@@H]1NC(=O)[C@@H]2CSSC[C@H](NC(=O)[C@H](CCCNC(=N)N)NC(=O)[C@H](CCCCN)NC(=O)[C@H](CCCCN)NC(=O)[C@H](CCCCN)NC1=O)C(=O)N1CCC[C@H]1C(=O)N[C@@H](Cc1c[nH]cn1)C(=O)N[C@H](Cc1ccccc1)C(=O)N[C@@H](CCCNC(N)=O)C(=O)N[C@@H](Cc1c[nH]c3ccccc13)C(=O)N2
notes: Printed shorthand is identical to that of Chem. 99; the drawings may differ; also called c[c[Cys-Pro-His-D-Phe-Cit-Trp-Cys]-Ala-Lys-Lys-Lys-Arg]
B3: Chem. 73 (peptide)
peptide: cyclo(C[Sar]H[dF]HWCAKKKW)
modifications: disulfide 1-7
SMILES: C[C@@H]1NC(=O)[C@@H]2CSSC[C@H](NC(=O)[C@H](Cc3c[nH]c4ccccc34)NC(=O)[C@H](CCCCN)NC(=O)[C@H](CCCCN)NC(=O)[C@H](CCCCN)NC1=O)C(=O)N(C)CC(=O)N[C@@H](Cc1c[nH]cn1)C(=O)N[C@H](Cc1ccccc1)C(=O)N[C@@H](Cc1c[nH]cn1)C(=O)N[C@@H](Cc1c[nH]c3ccccc13)C(=O)N2
notes: also called c[c[Cys-Sar-His-D-Phe-His-Trp-Cys]-Ala-Lys-Lys-Lys-Trp]
B4: Chem. 79 (peptide)
peptide: cyclo(CAH[dF]R[2Nal]CAKKKW)
modifications: disulfide 1-7
SMILES: C[C@@H]1NC(=O)[C@@H]2CSSC[C@H](NC(=O)[C@H](Cc3ccc4ccccc4c3)NC(=O)[C@H](CCCNC(=N)N)NC(=O)[C@@H](Cc3ccccc3)NC(=O)[C@H](Cc3c[nH]cn3)NC1=O)C(=O)N[C@@H](C)C(=O)N[C@@H](CCCCN)C(=O)N[C@@H](CCCCN)C(=O)N[C@@H](CCCCN)C(=O)N[C@@H](Cc1c[nH]c3ccccc13)C(=O)N2
notes: also called c[c[Cys-Ala-His-D-Phe-Arg-2-Nal-Cys]-Ala-Lys-Lys-Lys-Trp]
B5: Chem. 81 (peptide)
peptide: cyclo(C[Thz]H[dF]HWCAKKKW)
modifications: disulfide 1-7
SMILES: C[C@@H]1NC(=O)[C@@H]2CSSC[C@H](NC(=O)[C@H](Cc3c[nH]c4ccccc34)NC(=O)[C@H](CCCCN)NC(=O)[C@H](CCCCN)NC(=O)[C@H](CCCCN)NC1=O)C(=O)N1CSC[C@H]1C(=O)N[C@@H](Cc1c[nH]cn1)C(=O)N[C@H](Cc1ccccc1)C(=O)N[C@@H](Cc1c[nH]cn1)C(=O)N[C@@H](Cc1c[nH]c3ccccc13)C(=O)N2
notes: also called c[c[Cys-THAZ-His-D-Phe-His-Trp-Cys]-Ala-Lys-Lys-Lys-Trp]
B6: Chem. 82 (peptide)
peptide: cyclo(C[Aze]H[dF]HWCAKKKW)
modifications: disulfide 1-7
SMILES: C[C@@H]1NC(=O)[C@@H]2CSSC[C@H](NC(=O)[C@H](Cc3c[nH]c4ccccc34)NC(=O)[C@H](CCCCN)NC(=O)[C@H](CCCCN)NC(=O)[C@H](CCCCN)NC1=O)C(=O)N1CC[C@H]1C(=O)N[C@@H](Cc1c[nH]cn1)C(=O)N[C@H](Cc1ccccc1)C(=O)N[C@@H](Cc1c[nH]cn1)C(=O)N[C@@H](Cc1c[nH]c3ccccc13)C(=O)N2
notes: also called c[c[Cys-AZE-His-D-Phe-His-Trp-Cys]-Ala-Lys-Lys-Lys-Trp]
B7: Chem. 83 (peptide)
peptide: cyclo(C[Pip]H[dF]HWCAKKKW)
modifications: disulfide 1-7
notes: also called c[c[Cys-PIP-His-D-Phe-His-Trp-Cys]-Ala-Lys-Lys-Lys-Trp]
B8: Chem. 9 (peptide)
peptide: CXHFRWCXHFRW
modifications: Aib 2, 8; D-Phe 4, 10; disulphide Cys1-Cys7; head-to-tail amide Cys1-Trp12
notes: also called c[c[Cys-Aib-His-D-Phe-Arg-Trp-Cys]-Aib-His-D-Phe-Arg-Trp]
B9: Chem. 91 (peptide)
peptide: cyclo(C[Thz]H[dF]HWC[Thz]H[dF]HW)
modifications: disulfide 1-7
SMILES: O=C1N[C@H]2CSSC[C@H](NC(=O)[C@H](Cc3c[nH]c4ccccc34)NC(=O)[C@H](Cc3c[nH]cn3)NC(=O)[C@@H](Cc3ccccc3)NC(=O)[C@H](Cc3c[nH]cn3)NC(=O)[C@@H]3CSCN3C2=O)C(=O)N2CSC[C@H]2C(=O)N[C@@H](Cc2c[nH]cn2)C(=O)N[C@H](Cc2ccccc2)C(=O)N[C@@H](Cc2c[nH]cn2)C(=O)N[C@H]1Cc1c[nH]c2ccccc12
notes: also called c[c[Cys-THAZ-His-D-Phe-His-Trp-Cys]-THAZ-His-D-Phe-His-Trp]
B10: Chem. 92 (peptide)
peptide: cyclo([Pen]PH[dF]HWCAKKKR)
modifications: disulfide 1-7
SMILES: C[C@@H]1NC(=O)[C@@H]2CSSC(C)(C)[C@H](NC(=O)[C@H](CCCNC(=N)N)NC(=O)[C@H](CCCCN)NC(=O)[C@H](CCCCN)NC(=O)[C@H](CCCCN)NC1=O)C(=O)N1CCC[C@H]1C(=O)N[C@@H](Cc1c[nH]cn1)C(=O)N[C@H](Cc1ccccc1)C(=O)N[C@@H](Cc1c[nH]cn1)C(=O)N[C@@H](Cc1c[nH]c3ccccc13)C(=O)N2
notes: also called c[c[Pen-Pro-His-D-Phe-His-Trp-Cys]-Ala-Lys-Lys-Lys-Arg]
B11: Chem. 93 (peptide)
peptide: cyclo(CPH[dF]HW[Pen]AKKKR)
modifications: disulfide 1-7
SMILES: C[C@@H]1NC(=O)[C@H]2NC(=O)[C@H](Cc3c[nH]c4ccccc34)NC(=O)[C@H](Cc3c[nH]cn3)NC(=O)[C@@H](Cc3ccccc3)NC(=O)[C@H](Cc3c[nH]cn3)NC(=O)[C@@H]3CCCN3C(=O)[C@H](CSSC2(C)C)NC(=O)[C@H](CCCNC(=N)N)NC(=O)[C@H](CCCCN)NC(=O)[C@H](CCCCN)NC(=O)[C@H](CCCCN)NC1=O
notes: also called c[c[Cys-Pro-His-D-Phe-His-Trp-Pen]-Ala-Lys-Lys-Lys-Arg]
B12: Chem. 94 (peptide)
peptide: cyclo(CPH[dF]R[Phe(3,4-(OMe)2)]CAKKKR)
modifications: disulfide 1-7
notes: also called c[c[Cys-Pro-His-D-Phe-Arg-3,4-DiMeO-Phe-Cys]-Ala-Lys-Lys-Lys-Arg]
B13: Chem. 98 (peptide)
peptide: cyclo(C[dP]H[dF]HWCAKKKW)
modifications: disulfide 1-7
notes: also called c[c[Cys-D-Pro-His-D-Phe-His-Trp-Cys]-Ala-Lys-Lys-Lys-Trp]
B14: Chem. 103 (peptide)
peptide: cyclo(C[Ser(ΨH,HPro)]H[dF]HWCAKKKW)
modifications: disulfide 1-7
SMILES: C[C@@H]1NC(=O)[C@@H]2CSSC[C@H](NC(=O)[C@H](Cc3c[nH]c4ccccc34)NC(=O)[C@H](CCCCN)NC(=O)[C@H](CCCCN)NC(=O)[C@H](CCCCN)NC1=O)C(=O)N1COC[C@H]1C(=O)N[C@@H](Cc1c[nH]cn1)C(=O)N[C@H](Cc1ccccc1)C(=O)N[C@@H](Cc1c[nH]cn1)C(=O)N[C@@H](Cc1c[nH]c3ccccc13)C(=O)N2
notes: also called c[c[Cys-OXA-His-D-Phe-His-Trp-Cys]-Ala-Lys-Lys-Lys-Trp]
B15: Chem. 104 (peptide)
peptide: cyclo(C[Thz]H[dF]HWCAA[Lys(CH2CO2H)2]AW)
modifications: disulfide 1-7
SMILES: C[C@@H]1NC(=O)[C@H](C)NC(=O)[C@@H]2CSSC[C@H](NC(=O)[C@H](Cc3c[nH]c4ccccc34)NC(=O)[C@H](C)NC(=O)[C@H](CCCCN(CC(=O)O)CC(=O)O)NC1=O)C(=O)N1CSC[C@H]1C(=O)N[C@@H](Cc1c[nH]cn1)C(=O)N[C@H](Cc1ccccc1)C(=O)N[C@@H](Cc1c[nH]cn1)C(=O)N[C@@H](Cc1c[nH]c3ccccc13)C(=O)N2
notes: also called c[c[Cys-THAZ-His-D-Phe-His-Trp-Cys]-Ala-Ala-Lys(CH2COOH)2-Ala-Trp]
B16: Chem. 105 (peptide)
peptide: cyclo(C[Thz]H[dF]HWCAEEAW)
modifications: disulfide 1-7
SMILES: C[C@@H]1NC(=O)[C@H](CCC(=O)O)NC(=O)[C@H](CCC(=O)O)NC(=O)[C@H](C)NC(=O)[C@@H]2CSSC[C@H](NC(=O)[C@H](Cc3c[nH]c4ccccc34)NC1=O)C(=O)N1CSC[C@H]1C(=O)N[C@@H](Cc1c[nH]cn1)C(=O)N[C@H](Cc1ccccc1)C(=O)N[C@@H](Cc1c[nH]cn1)C(=O)N[C@@H](Cc1c[nH]c3ccccc13)C(=O)N2
notes: also called c[c[Cys-THAZ-His-D-Phe-His-Trp-Cys]-Ala-Glu-Glu-Ala-Trp]
B17: Chem. 106 (peptide)
peptide: cyclo(C[Thz]H[dF]HWCADDAW)
modifications: disulfide 1-7
SMILES: C[C@@H]1NC(=O)[C@H](CC(=O)O)NC(=O)[C@H](CC(=O)O)NC(=O)[C@H](C)NC(=O)[C@@H]2CSSC[C@H](NC(=O)[C@H](Cc3c[nH]c4ccccc34)NC1=O)C(=O)N1CSC[C@H]1C(=O)N[C@@H](Cc1c[nH]cn1)C(=O)N[C@H](Cc1ccccc1)C(=O)N[C@@H](Cc1c[nH]cn1)C(=O)N[C@@H](Cc1c[nH]c3ccccc13)C(=O)N2
notes: also called c[c[Cys-THAZ-His-D-Phe-His-Trp-Cys]-Ala-Asp-Asp-Ala-Trp]
B18: Chem. 107 (peptide)
peptide: cyclo(C[Thz]H[dF]HWCADEAW)
modifications: disulfide 1-7
SMILES: C[C@@H]1NC(=O)[C@H](CCC(=O)O)NC(=O)[C@H](CC(=O)O)NC(=O)[C@H](C)NC(=O)[C@@H]2CSSC[C@H](NC(=O)[C@H](Cc3c[nH]c4ccccc34)NC1=O)C(=O)N1CSC[C@H]1C(=O)N[C@@H](Cc1c[nH]cn1)C(=O)N[C@H](Cc1ccccc1)C(=O)N[C@@H](Cc1c[nH]cn1)C(=O)N[C@@H](Cc1c[nH]c3ccccc13)C(=O)N2
notes: also called c[c[Cys-THAZ-His-D-Phe-His-Trp-Cys]-Ala-Asp-Glu-Ala-Trp]

Target: T1, human melanocortin 4 receptor (human, UniProt P32245 1-332)
Test: cell-based or functional assay

T1 sequence (P32245 whole entry): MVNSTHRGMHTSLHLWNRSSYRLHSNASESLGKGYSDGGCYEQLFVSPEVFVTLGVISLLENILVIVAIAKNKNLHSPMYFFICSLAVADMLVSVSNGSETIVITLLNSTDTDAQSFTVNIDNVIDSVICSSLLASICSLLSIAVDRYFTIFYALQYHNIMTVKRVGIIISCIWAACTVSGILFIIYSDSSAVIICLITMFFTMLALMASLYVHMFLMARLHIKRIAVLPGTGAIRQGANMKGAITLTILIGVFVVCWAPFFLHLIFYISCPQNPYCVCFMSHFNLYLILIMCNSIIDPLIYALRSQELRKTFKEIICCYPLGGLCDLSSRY

Row | Binder | MC4R cAMP EC50 [nM]
1 | B1 | 0.38
2 | B2 | 0.03
3 | B3 | 1.26
4 | B4 | 0.02
5 | B5 | 0.07
6 | B6 | 0.53
7 | B7 | 2.15
8 | B8 | 0.02
9 | B9 | 0.71
10 | B10 | 0.13
11 | B11 | 0.04
12 | B12 | 4.38
13 | B13 | 2.7
14 | B14 | 0.05
15 | B15 | 0.6
16 | B16 | 6.62
17 | B17 | 10.6
18 | B18 | 10.6

Target: human melanocortin 1 receptor (human, UniProt Q01726 1-317)
Test: cell-based or functional assay

human melanocortin 1 receptor, sequence (Q01726 whole entry): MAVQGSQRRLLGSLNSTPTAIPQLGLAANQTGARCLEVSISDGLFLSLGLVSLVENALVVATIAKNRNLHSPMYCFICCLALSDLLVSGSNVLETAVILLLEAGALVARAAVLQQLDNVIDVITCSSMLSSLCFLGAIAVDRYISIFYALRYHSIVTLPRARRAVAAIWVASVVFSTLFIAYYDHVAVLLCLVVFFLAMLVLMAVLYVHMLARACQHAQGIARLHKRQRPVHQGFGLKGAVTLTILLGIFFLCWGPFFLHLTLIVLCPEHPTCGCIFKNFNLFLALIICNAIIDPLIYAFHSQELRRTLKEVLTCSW

Row | Binder | MC1R cAMP EC50 [nM]
19 | B1 | 75.7
20 | B2 | 5.86
21 | B3 | > 50
22 | B4 | 1.16
23 | B5 | 67
24 | B6 | 94.3
25 | B7 | > 10
26 | B8 | 4.02
27 | B9 | > 10
28 | B10 | 47.1
29 | B11 | 18.2
30 | B12 | 113
31 | B13 | > 55
32 | B14 | > 70
33 | B15 | > 100
34 | B16 | > 100
35 | B17 | > 100
36 | B18 | > 100

Target: T1, human melanocortin 4 receptor
Test: competition with 125-NDP-α-MSH, BHK human MC4R membranes
Method in brief: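 Competition binding used membranes from BHK cells stably expressing human MC4R with ¹²⁵I-NDP-α-MSH (apx. […] final), compound at 1 μM–0.001 nM. Incubation was 2 h at 25 °C in HEPES pH 7.0 buffer with CaCl₂, MgSO₄, EGTA, Tween 20 and 0.1% HSA or ovalbumin. Filter-bound radioactivity was fitted by non-linear regression.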

Row | Binder | Ki [nM]
37 | B1 | 0.07
38 | B2 | 0.03
39 | B3 | 0.3
40 | B4 | 0.03
41 | B5 | 0.03
42 | B6 | 0.07
43 | B7 | 0.17
44 | B8 | 0.06
45 | B9 | 0.51
46 | B10 | 0.04
47 | B11 | 0.03
48 | B12 | 0.25
49 | B13 | 0.6
50 | B14 | 0.06
51 | B15 | 8.87
52 | B16 | 43
53 | B17 | 42.8
54 | B18 | 39.1
